Consider 131 substances from the supplement of paper PMC12042874.

A short description of this series: amyloid nucleation score (Sup35N fusion, yeast selection) (log enrichment); library NNK3; higher = more nucleation; inactive = no reads after selection. A digest of the protocol:
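On medium lacking adenine and uracil, psi-negative yeast expressing peptides of 20 random codons fused to Sup35N were grown 7 days at 30°C after a 24-hour induction with 100 μM copper sulfate. Illumina sequencing of input and output plasmid inserts gave the reads, and sequences under 100 input reads were excluded. The nucleation score is the DiMSum log enrichment of output over input reads, centred on the mode score of non-aggregating sequences.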

± gives the uncertainty stated by the source.

Take MNNCLSVDKCFHFMLGFSP: the amyloid nucleation score entry is “inactive”.

As to SFSPFVTFNKWSRWGLRNIG, the amyloid nucleation score entry is “inactive”.

Regarding GCIMEEKFLRMDFDVVSEYN, the amyloid nucleation score result is “inactive”.

Consider PAERYKRSSLAKSYRLNYRS, for which the amyloid nucleation score entry was “inactive”.

Regarding SSELLLHGGTYYKIIYK, the amyloid nucleation score amounted to 0.586 ± 0.12.

Consider MPEVCDLMDHIICVCYGYID, for which the amyloid nucleation score result was “inactive”.

In the case of LAGSCMGLMCWVVDARAVGR, the amyloid nucleation score worked out at 0.06 ± 0.64.

Take KKSHCRTIYKSLV: the amyloid nucleation score entry is “inactive”.

As to IGYGGSIPRHSTCDVSLQRW, the amyloid nucleation score entry was “inactive”.

As for EKMAADQSS, the amyloid nucleation score entry is “inactive”.

SVSRRGKDR gave an amyloid nucleation score of -0.237 ± 1.5.

Take QVLWTGEMDSMICWA: the amyloid nucleation score result is “inactive”.

With RMSRNMWFWLRLNSNYIVFS, the amyloid nucleation score result was “inactive”.

Regarding NELCLVMIKKDVSMRVWLES, the amyloid nucleation score entry is “inactive”.

On to NILKKLNVRNHFLVLMKKHM, for which the amyloid nucleation score entry was “inactive”.

On to HTWFNFVYEVRSNKLTP, for which the amyloid nucleation score entry is “inactive”.

Turning to GSVVTQGCGNLTLEAA, the amyloid nucleation score result is “inactive”.

Turning to CCEFC, the amyloid nucleation score entry was “inactive”.

In the case of VLDVVGKKFMRVSWQDGMPG, the amyloid nucleation score came to 1.13 ± 0.18.

On to KYNHIYVYKSIRCVQGVLDG, for which the amyloid nucleation score result is “inactive”.

With IDLSAMFFAFFVIFVFVWIW, the amyloid nucleation score result was “inactive”.

Turning to LRGSRYFWDWAPSYYFVHLR, the amyloid nucleation score entry was “inactive”.

As to SPVAYRSTWFVFRNNSHYDQ, the amyloid nucleation score entry was “inactive”.

Turning to GRPICNYCRYVVVSVSMRRQ, the amyloid nucleation score entry was “inactive”.

As for WKFINDIASN, the amyloid nucleation score result was “inactive”.

Consider HRKIRFGYSL, for which the amyloid nucleation score entry is “inactive”.

In the case of GQNSRPGLANTLLYPEVLIR, the amyloid nucleation score result was “inactive”.

As for STWYSRCVLALNLLLSCNRG, the amyloid nucleation score amounted to 1.38 ± 0.13.

For DSISCCSPNITAYEFYGLTG, the amyloid nucleation score turned out to be 2.06 ± 0.066.

Turning to LIRVGKDRVVSMEEVRCLLR, the amyloid nucleation score result is “inactive”.

As for SHYLLMFLVSDTLV, the amyloid nucleation score entry was “inactive”.

Take SSSKMW: the amyloid nucleation score entry is “inactive”.

GHVSTCPNDGAAALSCLELF: the amyloid nucleation score result was “inactive”.

As for LCTKGYWFKAPNYLLSKLCF, the amyloid nucleation score entry is “inactive”.

Consider LFLYQLLSGHC, for which the amyloid nucleation score entry is “inactive”.

As for SIYLCLYREVSTVWGKRSN, the amyloid nucleation score entry was “inactive”.

Take TRLFRDNFHFLGRSLSATYV: the amyloid nucleation score entry is “inactive”.

For TDSLFGVIDHFYENRFW, the amyloid nucleation score was -0.845 ± 1.4.

GLTTSYQPYILYIL: the amyloid nucleation score entry is “inactive”.

In the case of RLVYPSVSSLKPIRSCWLG, the amyloid nucleation score entry was “inactive”.

Regarding VCEQYFGRCNLRNKFCIWTL, the amyloid nucleation score result was “inactive”.

As to RRYVDRYEAIWWCFCIRKLF, the amyloid nucleation score result is “inactive”.

Turning to ILTYINEMSHLPWV, the amyloid nucleation score entry is “inactive”.

On to LSNHCARVF, for which the amyloid nucleation score entry was “inactive”.

As to DNDVHKELFSPAASLSSTWS, the amyloid nucleation score result was “inactive”.

Take RTGEFMRGLMVGDSVKWVF: the amyloid nucleation score result is “inactive”.

Regarding KAPRCGVKAMLKGVMGFRRR, the amyloid nucleation score is 0.531 ± 0.24.

In the case of EYTLPRPCRLLIFSDQYSNA, the amyloid nucleation score entry was “inactive”.

On to DPYFVG, for which the amyloid nucleation score entry is “inactive”.

Take QTVNWSDDL: the amyloid nucleation score entry is “inactive”.

As for PRPWRL, the amyloid nucleation score entry was “inactive”.

HRDETGVHAVALSKSVWYKW registered an amyloid nucleation score of -1.07 ± 1.1.

Regarding IRIKVRLHVSIYFNIFR, the amyloid nucleation score result is “inactive”.

As for WFFTLCSSDQVSRGMR, the amyloid nucleation score result was “inactive”.

SKRNPRMRSQLFIGDYFAYP displayed an amyloid nucleation score of -1.13 ± 1.9.

With TKMDETDLLMFAVLTGGLNG, the amyloid nucleation score entry was “inactive”.

Take YYIYIYMCRLLVYIGFHFYW: the amyloid nucleation score entry is “inactive”.

As to IYIHQDPVFKGCYWLRRGVE, the amyloid nucleation score result is “inactive”.

Consider SRWNK, for which the amyloid nucleation score result is “inactive”.

In the case of DWVMADRMSPVKIMYATSSG, the amyloid nucleation score entry was “inactive”.

In the case of RKERGSVFGSIWQFSCIRR, the amyloid nucleation score came out at 0.731 ± 0.25.

Regarding YLLCGYRGATFRKHEVWGEG, the amyloid nucleation score is -0.059 ± 0.78.

For FALTIGSFSRMNHTVPNPFE, the amyloid nucleation score entry was “inactive”.

MSLNLHLKQGVFKGHTVSAL: the amyloid nucleation score entry was “inactive”.

SLAMTFYSGIGFYCFSCFFN displayed an amyloid nucleation score of 2.36 ± 0.059.

In turn, NVAFQCQKLTLLKGKLEPDR had an amyloid nucleation score of 0.272 ± 0.93.

As to LLISGCRSFMMAFSGCL, the amyloid nucleation score entry is “inactive”.

With VHSIYSTNFVLVFIPQSSVN, the amyloid nucleation score is 1.9 ± 0.075.

As to RMVHS, the amyloid nucleation score was found to be 1.62 ± 0.091.

On to HYRYGKHREKMLMSAIVWLS, for which the amyloid nucleation score entry was “inactive”.

As for SPLSRWLVDNTGPLGGSLSR, the amyloid nucleation score result is “inactive”.

IIPRIALPVCFVPYGLRRSS: the amyloid nucleation score entry is “inactive”.

LYRAIHHNKFLESACLRYAL: the amyloid nucleation score result was “inactive”.

SVNNVAWWHYGKMRVNFTFS displayed an amyloid nucleation score of -0.552 ± 0.71.

Regarding GSSIEPDWL, the amyloid nucleation score entry was “inactive”.

Substance GAVRMVETTMYFLFTMPSGS yielded an amyloid nucleation score of 0.359 ± 0.24.

For MSEVPGMNDTWRVCIMDQGK, the amyloid nucleation score result was “inactive”.

As for YSWGRWICHNVVE, the amyloid nucleation score is -0.21 ± 0.74.

FKYLRCNNIIVCPVVMVHLT displayed an amyloid nucleation score of 0.345 ± 0.22.

On to RLINVMVCYLLEGCQGLLL, for which the amyloid nucleation score is 1.67 ± 0.1.

Consider LADWQMGVPRGLQVMVCTTL, for which the amyloid nucleation score result was “inactive”.

For the substance SCKLSHFEVTMECLEYFWMM, the amyloid nucleation score result was “inactive”.

For the substance RYFSW, the amyloid nucleation score result was “inactive”.

As for SIAIRVRAIIGKSRGKCPNG, the amyloid nucleation score was determined as 1.81 ± 0.092.

For DENVRLTL, the amyloid nucleation score entry is “inactive”.

As for NAGYCVRTRSLGESLSIVRK, the amyloid nucleation score result was “inactive”.

For SEALCWIVTSVCRLRVFLV, the amyloid nucleation score entry is “inactive”.

Take CRKEYIFYLFHIIMSQARNI: the amyloid nucleation score entry is “inactive”.

Substance GWLGSVGAKPADRVGKTGGI came in with an amyloid nucleation score of 0.504 ± 0.24.

Take RNKRLKLILYLHRVDEAVAE: the amyloid nucleation score result is “inactive”.

With TCSMSTARSCSHKSNRVMHW, the amyloid nucleation score entry was “inactive”.

Take RDVMWVNHVYCMLEFWTWVV: the amyloid nucleation score result is “inactive”.

RLGFF: the amyloid nucleation score result is “inactive”.

Regarding VYMGTVWCSRAI, the amyloid nucleation score entry is “inactive”.

VHHLLELEQVHNKDGTF: the amyloid nucleation score entry was “inactive”.

As for WFGKPFYTYSKSSWRMLYQL, the amyloid nucleation score entry was “inactive”.

Take VMMYFQFMPLKPSRD: the amyloid nucleation score was 1.25 ± 0.12.

Turning to GIVDQFRTVSNNVLNQYEIW, the amyloid nucleation score result was “inactive”.

With HNYLRS, the amyloid nucleation score result is “inactive”.

TTTAYWNESDTLRCMLV: the amyloid nucleation score was -0.757 ± 1.4.

With IDFRFFQPQAVCGNLSCYRE, the amyloid nucleation score came out at 0.227 ± 0.23.

Consider YISYLDMDCEFVLS, for which the amyloid nucleation score result is “inactive”.

Regarding AAPCFVKLLHGLVVRVQVVM, the amyloid nucleation score result is “inactive”.

For DRKLLYY, the amyloid nucleation score result was “inactive”.

SKLLIPHNNGRYSFFWSIGM showed an amyloid nucleation score of 2.04 ± 0.078.

In the case of SLMSGWN, the amyloid nucleation score result was “inactive”.

As to RFLSMSTLKRDS, the amyloid nucleation score entry is “inactive”.

For RSVATLYGLRSCFCLVCSKL, the amyloid nucleation score is 1.41 ± 0.12.

On to YLLRHILSIWKGWDWGTSQ, for which the amyloid nucleation score entry is “inactive”.

In the case of VGSAGVSVFVWRVCRFCEGN, the amyloid nucleation score was -0.434 ± 1.1.

On to PFWVTVYMDILLVKQQPLSV, for which the amyloid nucleation score result was “inactive”.

For QWGGSNIVRYRNFIVGLFVR, the amyloid nucleation score entry was “inactive”.

As to MQLSCRLGSLCSQQSNLARS, the amyloid nucleation score result was “inactive”.

On to IGSAVIWVFFCNGSGVGDGT, for which the amyloid nucleation score was found to be 2.08 ± 0.09.

As to NRIFSLTM, the amyloid nucleation score entry is “inactive”.

RQHGMLCSRSTRMVLFKS: the amyloid nucleation score entry is “inactive”.

Regarding LYDSIVHESKRLLATDRIRF, the amyloid nucleation score result is “inactive”.

Take IVANGCRWQVRVPWGLTSKW: the amyloid nucleation score result is “inactive”.

Regarding PSMSADGADLSGCQLIMVLS, the amyloid nucleation score entry is “inactive”.

The substance ASRPFFRPVRQVSEVLPGQW yielded an amyloid nucleation score of 0.058 ± 1.1.

For WCPSSSM, the amyloid nucleation score entry was “inactive”.

As to RDPFITFWYMRIYTTGRGCV, the amyloid nucleation score result was “inactive”.

Substance FLCRAVRDKNHDIGLCWELR showed an amyloid nucleation score of -0.488 ± 0.8.

As for TTHNAFMSNNNIR, the amyloid nucleation score came to 0.711 ± 0.13.

On to SRLTAFMNYVGCRMVSGWTR, for which the amyloid nucleation score entry was “inactive”.

For YCFVPRIMYMVCQYCVLTND, the amyloid nucleation score entry was “inactive”.

Take CEPMRYNCFCGFCIYDVRV: the amyloid nucleation score came to 2.36 ± 0.06.

YLEKAL: the amyloid nucleation score entry is “inactive”.

Turning to QLALPHKPHWGNWL, the amyloid nucleation score result is “inactive”.

Turning to DRVDIRATADELGLR, the amyloid nucleation score entry is “inactive”.

For the substance FFRDQLRRLYLSSALMQFRM, the amyloid nucleation score result is “inactive”.
